Substrate in data set [1]: O=C(O)c1ccc(O)c(O)c1
The data set can be described thus: purified protein. Conditions: apparent, 0.25 mM NADPH, 20 mM Tris-HCl pH 7.9, 25 °C.

Substrate in data set [2]: O=C(O)c1ccc(O)cc1
Nature of the data set: purified protein. Conditions: apparent, 0.25 mM NADPH, 20 mM Tris-HCl pH 7.9, 25 °C.

For orientation: kcat means the number of substrate molecules converted per active site and unit of time at saturation. In general, kcat/Km refers to the turnover number divided by the Michaelis constant.

B1: PkPobA (Pigmentiphaga kullae) (protein)
chain: MSERTQVGIVGAGPAGLLLSHLLHREGIESIVFDNRSREHVQQRLRAGVLEQGTVDLLAEVGLGERMRRLGMPQTSLDFRYAQASHRIDFAQEIGRTVMVYPQHEVVHDLIEARLAAGGDLRFDTPVTAIRDLEGPSPTILAGPEGRPVRCDFIAGCDGFHGICRDAIPASVMKAYDRVYPFGWLGILAEVPPAAPDVTWGCHETGFAMLSFRSPTRSRLYLQCEPDDDPDNWSDDRIWSALHERLDVPGMPPLIEGPIVQKGVTAMRSFQVEPLRHGALFLAGDAAHIVPPTGAKGLNSAVADIRVLGRALAAYYRQGSTRLLDSYSETCLRRMWLVHRFSAGLCTMVHSFPGQSDFARRLQRADLDYMTGSEPGRRAFSENFTGLPIEA
B1: in data set [1], the Km is reported as 3.2 ± 0.7 × 10^−1 mM, the kcat was 1.1 ± 0.1 s⁻¹ and the kcat/Km stood at 3700 ± 600 M⁻¹ s⁻¹. Further, the Km in data set [2] was 3.7 ± 1.8 × 10^−1 mM.

B2: XaPobA (Xylophilus ampelinus) (protein)
chain: MRTQVGIVGAGPAGLMLAHLLRREGIDAVVIERAAREHVRTRLRAGVLEQGTVEMLREAGVGGRIDAVGMEMHAIDFRFGGRSHRLDFHEASGGRRAWVYPQHEVVTDLMSACDAGDVPILYEAPVERIEGLEDDRARIVFGQDGAAGEITCDFVAGCDGFRGVSRGSMPAGIARGYDRIYPFGWLGILADAPPASPDVTWGCSDRGFAMMSMRSPTVTRLYLQCEPDEDPDAWSDDRIWSELHRRLDVEGMPSLREGPIRDKGVTAMRSFLSEPMQHGRLFLAGDAAHIVPPTGAKGLNSAMADIKVLAAALVDHYRHGRSDRLATYSERCLRRMWLVQRFSAALCTMVHQFPGQNEFVRRLQRADLDYMTGTHAGRLQFAENFTGLPIE
B2: the Km was 3.7 ± 0.9 × 10^−1 mM in data set [1] and 4.3 ± 0.3 × 10^−1 mM in data set [2].

B3: PaPobA (Pseudomonas aeruginosa PAO1) (protein)
chain: MKTQVAIIGAGPSGLLLGQLLHKAGIDNVILERQTPDYVLGRIRAGVLEQGMVDLLREAGVDRRMARDGLVHEGVEIAFAGQRRRIDLKRLSGGKTVTVYGQTEVTRDLMEAREACGATTVYQAAEVRLHDLQGERPYVTFERDGERLRLDCDYIAGCDGFHGISRQSIPAERLKVFERVYPFGWLGLLADTPPVSHELIYANHPRGFALCSQRSATRSRYYVQVPLSEKVEDWSDERFWTELKARLPSEVAEKLVTGPSLEKSIAPLRSFVVEPMQHGRLFLAGDAAHIVPPTGAKGLNLAASDVSTLYRLLLKAYREGRGELLERYSAICLRRIWKAERFSWWMTSVLHRFPDTDAFSQRIQQTELEYYLGSEAGLATIAENYVGLPYEEIE
On to B3, for which the Km in data set [1] is 1.3 ± 0.2 × 10^−1 mM.

Values taken from publication PMC10770758, “Protocatechuate hydroxylase is a novel group A flavoprotein monooxygenase with a unique substrate recognition mechanism” (The Journal of Biological Chemistry, 2023).
